In US6693076:

Legend:
[1] = target: 125I-[Threonine59]IGF-I binding sites in adult rat brain sections (level of the cerebellum and brain stem) (rat); test: displacement of 0.01 nM 125I-[Thr59]IGF-I from rat brain sections; competitor at .25 mM
[2] = target: 125I-[Threonine59]IGF-I binding sites in adult rat brain sections (level of the cerebellum and brain stem) (rat); test: displacement of 0.01 nM 125I-[Thr59]IGF-I from rat brain sections; competitor at .025 mM
[3] = target: 125I-[Threonine59]IGF-I binding sites in adult rat brain sections (level of the cerebellum and brain stem) (rat); test: displacement of 0.01 nM 125I-[Thr59]IGF-I from rat brain sections; competitor at 1 mM
[4] = target: 125I-[Threonine59]IGF-I binding sites in adult rat brain sections (level of the cerebellum and brain stem) (rat); test: displacement of 0.01 nM 125I-[Thr59]IGF-I from rat brain sections; competitor at .10 mM

Binder	percent max. bound [1] [%]	percent max. bound [2] [%]	percent max. bound [3] [%]	percent max. bound [4] [%]
ALLETYCATPAKSE [IGF-II(54-67)]	167	132	–	–
SRVSRRSR [IGF-II(33-40)]	–	–	76	82
